{
  "source": "paper PMC10200060",
  "about": "“Inhibition of DAMP actions in the tumoral microenvironment using lactoferrin-glycyrrhizin conjugate for glioblastoma therapy” (Biomaterials Research, 2023)",
  "molecules": {"B1": {"name": "Lf-GL: lactoferrin-glycyrrhizin conjugate with ligation ratio Lf:GL 1:10, used in further experiments (conjugate, UniProt P24627 20-708, looked up)", "Lactotransferrin": "APRKNVRWCTISQPEWFKCRRWQWRMKKLGAPSITCVRRAFALECIRAIAEKKADAVTLDGGMVFEAGRDPYKLRPVAAEIYGTKESPQTHYYAVAVVKKGSNFQLDQLQGRKSCHTGLGRSAGWIIPMGILRPYLSWTESLEPLQGAVAKFFSASCVPCIDRQAYPNLCQLCKGEGENQCACSSREPYFGYSGAFKCLQDGAGDVAFVKETTVFENLPEKADRDQYELLCLNNSRAPVDAFKECHLAQVPSHAVVARSVDGKEDLIWKLLSKAQEKFGKNKSRSFQLFGSPPGQRDLLFKDSALGFLRIPSKVDSALYLGSRYLTTLKNLRETAEEVKARYTRVVWCAVGPEEQKKCQQWSQQSGQNVTCATASTTDDCIVLVLKGEADALNLDGGYIYTAGKCGLVPVLAENRKSSKHSSLDCVLRPTEGYLAVAVVKKANEGLTWNSLKDKKSCHTAVDRTAGWNIPMGLIVNQTGSCAFDEFFSQSCAPGADPKSRLCALCAGDDQGLDKCVPNSKEKYYGYTGAFRCLAEDVGDVAFVKNDTVWENTNGESTADWAKNLNREDFRLLCLDGTRKPVTEAQSCHLAVAPNHAVVSRSDRAAHVKQVLLHQQALFGKNGKNCPDKFCLFKSETKNLLFNDNTECLAKLGGRPTYEEYLGTEYVTAIANLKKCSTSPLLEACAFLTR", "modifications": "glycyrrhizin conjugate"}},
  "key": {"[1]": {"tested_on": "orthotopic GBM (U87MG) mice model", "experiment": "Survival in orthotopic GBM mouse model", "format": "in vivo, Balb/c nude mice", "conditions": "i.v. GL equivalent 50 mg kg^−1 (Lf 5 mg kg^−1)", "description": "To establish the orthotopic GBM mice model, GBM cells (U87MG, inoculation density: 1.0 × 10^6 cells per 10 μL) were stereotactically injected into the right striatum of Balb/c nude mice. Then, mice were randomly divided into four groups (n = 5): control, GL, Lf, and Lf-GL treated group. […] After four weeks, mice were sacrificed, and organs were harvested and fixed with 4% paraformaldehyde for further analysis."}, "[2]": {"tested_on": "U87MG", "experiment": "Annexin V/PI apoptosis staining in U87MG", "format": "cell-based, human", "conditions": "GL equivalent 50 µM, 24 h (control 1.40%)", "description": "Fig. S10. Non-apoptotic U87MG growth inhibition of Lf-GL. Annexin V-DY-634 / PI apoptosis staining to detect the apoptosis and necrosis in the Control, GL, Lf, and Lf-GL treated group at all GL equivalent concentration of 50 µM for 24 h. However, the cell population of annexin V (+)/PI (+) in the Lf-GL treatment group was 0.28%, which was even lower level to 1.40% in the Control group"}, "[3]": {"experiment": "In vivo pharmacokinetics study", "conditions": "mice, i.v."}, "[4]": {"tested_on": "U87MG human glioma cell line", "experiment": "Cell viability test (CCK-8) in U87MG", "format": "cell-based", "conditions": "50 μM GL equivalent", "description": "Cell viability was determined using a cell counting kit-8 (CCK-8). U87MG and HUVECs (seeding density: 0.75 × 10^4 cells per well) in 96-well culture plates were treated with GL, Lf, or Lf-GL (25 to 200 × 10^–6 M of GL equivalent concentration) and were incubated for different periods of time (24, 48, and 72 h). After washing with PBS, they were treated with a cell culture medium containing a CCK-8 assay kit (Abbkine) and were incubated at 37 °C and 5% CO2 for 2 h. Then, absorbance was measured at 450 nm in a micro-plate reader (VLBL00D0, Thermo Fisher Scientific). Results were quantified using Sigma Plot (Systat Software, USA). To determine the effect of extracellular HMGB1 in GBM and endothelial cell proliferation, U87MG and HUVECs were seeded in 96-well culture plates (seeding density: 0.75 × 10^4 cells per well) and GL, Lf, or Lf-GL (50 × 10^–6 M GL equivalent concentration) were added to cells with or without HMGB1 protein (U87MG: 0.1 μg mL^−1, and HUVEC: 1 μg mL^−1). Cells were incubated for different periods of time (24, 48, and 72 h)."}, "[5]": {"experiment": "In vivo fluorescence tracer image (brain)", "set-up": "species or system Balb/c mice", "conditions": "FITC-tagged", "description": "For the fluorescence tracer images, Balb/c mice were administered either FITC-tagged GL or FITC-tagged Lf-GL at a GL equivalent concentration of 50 mg kg^−1 body weight via tail vein injection. After 1, 10, 30, and 60 min, the experimental mice were sacrificed, and the organs were extracted. The fluorescence signals of FITC-tagged GL or FITC-tagged Lf-GL in organs were imaged using an in vivo imaging system (FOBI, CELLGENTEK, South Korea). The exposure time was fixed to 200 s for analyzing fluorescent signals from tissues. The quantified fluorescence signal of the brain at each time point was measured in terms of intensity units (IU, Intensity Min^−1 Gain^−1).\nFig. S15. Fluorescence tracer images of intravenously injected GL and Lf-GL. Balb/c mice were administered either FITC-tagged GL or FITC-tagged Lf-GL at a GL equivalent concentration of 50 mg kg^-1 body weight via tail vein injection. The fluorescence signals of FITC-tagged GL or FITC-tagged Lf-GL in organs were imaged using an in vivo imaging system (FOBI, CELLGENTEK, South Korea). The exposure time was fixed to 200 sec for analyzing fluorescent signals from tissues. The quantified fluorescence signal of brain at each time point was measured with Intensity Unit (IU, Intensity Min^-1 Gain^-1)."}, "[6]": {"tested_on": "HMGB1", "experiment": "HUVEC co-cultured with U87MG: HMGB1 ELISA", "format": "cell-based, human", "conditions": "HUVEC/U87MG co-culture, 100 μM GL equivalent, 24 h (control 217.8 ± 5.9)", "description": "To evaluate the inhibitory effect of Lf-GL on neovascularization in the tumor microenvironment in vitro, U87MG cells were seeded in the Transwell® insert chambers that were 6.5 mm in diameter and had 0.4 μm pore sizes (seeding density: 2.5 × 10^4 cells per well, Corning). HUVECs were seeded in the Transwell basal chamber (seeding density: 5.0 × 10^4 cells per well). GL, Lf, or Lf-GL (100 × 10^–6 M of GL equivalent concentration) were added to the insert chamber, and cells were incubated for 24 h. CCK-8 assay and HMGB1 ELISA were conducted at the basal chamber."}, "[7]": {"tested_on": "orthotopic GBM (U87MG) mice model", "experiment": "TUNEL assay of GBM tissue", "format": "in vivo, Balb/c nude mice", "conditions": "daily i.v., 14 days (control 28.5 ± 4.8)", "description": "After two weeks, mice were sacrificed, and the brains were harvested and fixed with paraformaldehyde (4%). Then, tissue processing was automatically conducted using a Leica TP1020 semi-enclosed Benchtop Tissue Processor (Leica Biosystems, Wetzlar, Hesse, Germany), followed by embedding in paraffin blocks. Paraffin blocks were sliced into 5 μm thick slices using a Leica RM2145 Microtome (Leica Biosystems). Nissl staining was used to stain brain tissue slides with pre-warmed 0.1% Cresyl Violet Stain Solution (Abcam). TUNEL assays were conducted following the manufacturer’s instructions. For immunofluorescence staining; anti-HMGB1 antibody (Abcam), anti-Ki67 antibody (Abcam), anti-CD31 antibody (Abcam), and anti-VEGF antibody (Abcam) were used as primary antibodies, and goat anti-rabbit IgG-H&L Alexa Fluor 488 and goat anti-rabbit IgG H&L Alexa Fluor 647 were used as secondary antibodies, followed by DAPI mounting."}, "[8]": {"tested_on": "U87MG spheroid", "experiment": "GBM spheroid growth inhibition", "format": "cell-based, human", "conditions": "GL equivalent 50 µM, day 6 (control 294%)", "description": "Fig. S8. GBM spheroid growth inhibition of Lf-GL. To form U87MG spheroid, cells were seeded at density of 1X10^5 cells in concave mold (StemFIT 3D; MICROFIT, Korea). After spheroids were formed, they were transferred to 24-well plate coated with 2% agarose gel. The constructed spheroids were treated with conditioned medium at 2 days interval after a washing step with PBS. (a) Morphology of U87MG spheroid treated with Lf-GL of GL equivalent concentration of 50 µM on day 0, 2, 4 and 6, respectively. Scale bar: 200 µm (b) GBM spheroids time-related volume after treated with Lf-GL of GL equivalent concentration of 50 µM. Data were expressed as mean ± S.E.M (n=9). **P <0.01 versus Control."}, "[9]": {"conditions": "GL equivalent 50 mg kg^−1, plasma"}},
  "data": [
    {"molecule": "B1", "values": [
      {"measurement": "Mice survived up to 28 days", "setting": "[1]", "value": 87.5, "unit": "%"},
      {"measurement": "Additional days of survival versus PBS control", "setting": "[1]; 28 days", "value": 5, "unit": "days"},
      {"measurement": "Annexin V (+)/PI (+) cell population", "setting": "[2]", "value": 0.28, "unit": "%"},
      {"measurement": "Increase of AUClast versus free GL", "setting": "[3]; GL equivalent 50 mg kg^−1", "value": "tenfold"},
      {"measurement": "Cmax", "setting": "[3]; [9]", "value": "270.98 ± 130.92", "unit": "μg/㎖"},
      {"measurement": "MRT, mean retention time", "setting": "[3]; [9]", "value": "3.4 ± 0.8", "unit": "min"},
      {"measurement": "Tmax", "setting": "[3]; [9]", "value": 1, "unit": "min"},
      {"measurement": "Growth rate", "setting": "[4]; 72 h", "value": "68.7 ± 15.9", "unit": "%"},
      {"measurement": "Number of cells, % of the original count", "setting": "[4]; after 48 h treatment", "value": "44.1 ± 6.3", "unit": "%"},
      {"measurement": "Time up to which fluorescence signal was detected in the brain", "setting": "[5]; i.v. GL equivalent 50 mg kg^−1", "value": "up to 60 min"},
      {"measurement": "Fluorescence intensity in the brain", "setting": "[5]; i.v. GL equivalent 50 mg kg^−1, 10 min after injection", "value": "15,234 I.U."},
      {"measurement": "HMGB1 level in medium", "setting": "[6]", "value": "176.1 ± 4.9", "unit": "ng/mL"},
      {"measurement": "TUNEL MFI", "setting": "[7]", "value": "9.1 ± 0.9"},
      {"measurement": "Spheroid volume increase at day 6 compared to day 0", "setting": "[8]", "value": 156, "unit": "%"}
    ]}
  ]
}
